{"source": "paper PMC3323696", "key": {"[1]": {"target": "GABAA receptor (GABAAR β2/3 subunits) (mouse (endogenous in striatum)) (UniProt P63137)", "sequence (P63137 whole entry, looked up)": "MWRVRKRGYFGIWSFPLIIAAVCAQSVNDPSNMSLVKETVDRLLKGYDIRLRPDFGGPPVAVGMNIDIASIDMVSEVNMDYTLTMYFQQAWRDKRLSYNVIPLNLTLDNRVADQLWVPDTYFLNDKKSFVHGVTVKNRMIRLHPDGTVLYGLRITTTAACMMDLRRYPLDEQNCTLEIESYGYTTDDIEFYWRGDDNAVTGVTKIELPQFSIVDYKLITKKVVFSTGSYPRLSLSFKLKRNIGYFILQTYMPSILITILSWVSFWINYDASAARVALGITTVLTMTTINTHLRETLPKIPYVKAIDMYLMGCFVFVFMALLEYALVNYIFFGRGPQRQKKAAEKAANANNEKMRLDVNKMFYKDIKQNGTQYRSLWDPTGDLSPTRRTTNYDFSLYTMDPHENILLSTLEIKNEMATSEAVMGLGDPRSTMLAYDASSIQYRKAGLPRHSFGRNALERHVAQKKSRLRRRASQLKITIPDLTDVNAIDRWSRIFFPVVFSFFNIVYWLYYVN", "test": "co-IP"}, "[2]": {"target": "tubulin (α-tubulin) (mouse (endogenous in striatum)) (UniProt P68369)", "test": "co-IP"}}}
{"molecule": "tubulin (α-tubulin) (from UniProt P68369 1-451) (natural protein)", "values": [{"measurement": "co-precipitated amount in HD (N171-82Q) mice, % of WT mice", "setting": "[1]", "result": "67.4 % of WT"}]}
{"molecule": "KIF5 heavy chain (from UniProt Q61768 1-963) (natural protein)", "values": [{"measurement": "co-precipitated amount in HD (N171-82Q) mice, % of WT mice", "setting": "[2]", "result": "35.5 % of WT"}, {"measurement": "co-precipitated amount in HD (N171-82Q) mice, % of WT mice", "setting": "[1]", "result": "41.5 % of WT"}]}
{"molecule": "GABAA receptor (GABAAR β2/3 subunits) (from UniProt P63137 26-512; P63080 26-473)", "values": [{"measurement": "co-precipitated amount in HD (N171-82Q) mice, % of WT mice", "setting": "[2]", "result": "65.3 % of WT"}]}
{"molecule": "huntingtin associated protein 1 (HAP1) (natural protein) MRPKEQVQSGAGDGTGSGDPAAGTPTTQPAVGPAPEPSAEPKPAPAQGTGSGQKSGSRTKTGSFCRSMIIGDSDAPWTRYVFQGPYGPRATGLGTGKAEGIWKTPAAYIGRRPGVSGPERAAFIRELQEALCPNPPPTKKITEDDVKVMLYLLEEKERDLNTAARIGQSLVKQNSVLMEENNKLETMLGSAREEILHLRKQVNLRDDLLQLYSDSDDDDDEEDEEDEEEGEEEEREGQRDQDQQHDHPYGAPKPHPKAETAHRCPQLETLQQKLRLLEEENDHLREEASHLDNLEDEEQMLILECVEQFSEASQQMAELSEVLVLRLEGYERQQKEITQLQAEITKLQQRCQSYGAQTEKLQQMLASEKGIHSESLRAGSYMQDYGSRPRDRQEDGKSHRQRSSMPAGSVTHYGYSVPLDALPSFPETLAEELRTSLRKFITDPAYFMERRDTHCREGRKKEQRAMPPPPAQDLKPPEDFEAPEELVPEEELGAIEEVGTAEDGQAEENEQASEETEAWEEVEPEVDETTRMNVVVSALEASGLGPSHLDMKYVLQQLSNWQDAHSKRQQKQKVVPKDSPTPQQQTNMGGGILEQQPRVPTQDSQRLEEDRATHSPSAREEEGPSGAT", "values": [{"measurement": "co-precipitated amount in HD (N171-82Q) mice, % of WT mice", "setting": "[1]", "result": "42.9 % of WT"}]}
